Source: the RNAGym collection of RNA variant scans (doi:10.1093/molbev/msab373)

B1: Azoarcus group I ribozyme (parent)
chain: GUGCCUUGCGCCGGGAAACCACGCAAGGGAUGGUGUCAAAUUCGGCGAAACCUAAGCGCCCGCCCGGGCGUAUGGCAACGCCGAGCCAAGCUUCGGCGCCUGCGCCGAUGAAGGUGUAGAGACUAGACGGCACCCACCUAAGGCAAACGCUAUGGUGAAGGCAUAGUCCAGGGAGUGGCGAAAGUCACACAAACCGG

Variants of: B1
Test: reverse-splicing fitness (ratio to wild type); higher = more active; in vitro selection; Mg2+ level not given
Summary of the method: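 An in vitro group I ribozyme library with randomized positions was T7-transcribed and gel-purified. In triplicate, 10 pmol RNA in EPPS pH 7.5 was reacted with 50 pmoles of a 30-nt RNA substrate for 1 h at 37 °C across several added MgCl2 levels (1–48 mM), then stopped with EDTA. Products were reverse transcribed from a substrate-complementary primer, PCR-amplified and sequenced (HiSeq 4000). Fitness is a variant's read proportion after selection over that before, normalised to wild type.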

Variant | reverse-splicing fitness
GUGCCUUGCGCCGGGAAACCACGCAAGGGAUGGUGUCAAAUUCGGCGAAACCUAAGCGCCCGCCCGGGCGUAUGGCAACGCGGAGCCAAGCUUCGGCGCCUGCGCCGAUGAAGGUGUAGUGACUAGACGGCACCCACCUAAGGCCAACGGUAUGGUGAAGGCAUAGUCUAGGGAGUGGCGAAAGUCACACAAACCGG | 0.00302
GUGCCUUGCGCCGGGAAACCACGCAAGGGAUGGUGUCAAAUUCGGCGAAACCUAAGCGCCCGCCCGGGCGUAUGGCAACGCGGAGCCAAGCUUCGGCGCCUGCGCCGAUGAAGGUGUAGUGACUAGACGGCACCCACCUAAGGCCAACGGUAUGGUGAAGGCAUAGUCUAGGGAGAGGCGAAAGUCACACAAACCGG | 0.00213
GUGCCUUGCGCCGGGAAACCACGCAAGGGAUGGUGUCAAAUUCGGCGAAACCUAAGCGCCCGCCCGGGCGUAUGGCAACGCGGAGCCAAGCUUCGGCGCCUGCGCCGAUGAAGGUGUAGUGACUAGACGGCACCCACCUAAGGCCAACGGUAUGGUGAAGGCAUAGUCUAGGGAGCGGCGAAAGUCACACAAACCGG | 0.00176
GUGCCUUGCGCCGGGAAACCACGCAAGGGAUGGUGUCAAAUUCGGCGAAACCUAAGCGCCCGCCCGGGCGUAUGGCAACGCGGAGCCAAGCUUCGGCGCCUGCGCCGAUGAAGGUGUAGUGACUAGACGGCACCCACCUAAGGCCAACGGUAUGGUGAAGGCAUAGUCUAGGGAGGGGCGAAAGUCACACAAACCGG | 0.00182
GUGCCUUGCGCCGGGAAACCACGCAAGGGAUGGUGUCAAAUUCGGCGAAACCUAAGCGCCCGCCCGGGCGUAUGGCAACGCGGAGCCAAGCUUCGGCGCCUGCGCCGAUGAAGGUGUAGUGACUAGACGGCACCCACCUAAGGCCAACGGUAUGGUGAAGGCAUAGUCCAGGGAGAGGCGAAAGUCACACAAACCGG | 0.00741
GUGCCUUGCGCCGGGAAACCACGCAAGGGAUGGUGUCAAAUUCGGCGAAACCUAAGCGCCCGCCCGGGCGUAUGGCAACGCGGAGCCAAGCUUCGGCGCCUGCGCCGAUGAAGGUGUAGUGACUAGACGGCACCCACCUAAGGCCAACGGUAUGGUGAAGGCAUAGUCCAGGGAGCGGCGAAAGUCACACAAACCGG | 0.00907
GUGCCUUGCGCCGGGAAACCACGCAAGGGAUGGUGUCAAAUUCGGCGAAACCUAAGCGCCCGCCCGGGCGUAUGGCAACGCGGAGCCAAGCUUCGGCGCCUGCGCCGAUGAAGGUGUAGUGACUAGACGGCACCCACCUAAGGCCAACGGUAUGGUGAAGGCAUAGUCCAGGGAGGGGCGAAAGUCACACAAACCGG | 0.00292
GUGCCUUGCGCCGGGAAACCACGCAAGGGAUGGUGUCAAAUUCGGCGAAACCUAAGCGCCCGCCCGGGCGUAUGGCAACGCGGAGCCAAGCUUCGGCGCCUGCGCCGAUGAAGGUGUAGUGACUAGACGGCACCCACCUAAGGCCAACGUUAUGGUGAAGGCAUAGUCCAGGGAGUGGCGAAAGUCACACAAACCGG | 0.0385
GUGCCUUGCGCCGGGAAACCACGCAAGGGAUGGUGUCAAAUUCGGCGAAACCUAAGCGCCCGCCCGGGCGUAUGGCAACGCGGAGCCAAGCUUCGGCGCCUGCGCCGAUGAAGGUGUAGUGACUAGACGGCACCCACCUAAGGCCAACGUUAUGGUGAAGGCAUAGUCAAGGGAGUGGCGAAAGUCACACAAACCGG | 0.00185
GUGCCUUGCGCCGGGAAACCACGCAAGGGAUGGUGUCAAAUUCGGCGAAACCUAAGCGCCCGCCCGGGCGUAUGGCAACGCGGAGCCAAGCUUCGGCGCCUGCGCCGAUGAAGGUGUAGUGACUAGACGGCACCCACCUAAGGCCAACGUUAUGGUGAAGGCAUAGUCAAGGGAGAGGCGAAAGUCACACAAACCGG | 0.00222
GUGCCUUGCGCCGGGAAACCACGCAAGGGAUGGUGUCAAAUUCGGCGAAACCUAAGCGCCCGCCCGGGCGUAUGGCAACGCGGAGCCAAGCUUCGGCGCCUGCGCCGAUGAAGGUGUAGUGACUAGACGGCACCCACCUAAGGCCAACGUUAUGGUGAAGGCAUAGUCAAGGGAGCGGCGAAAGUCACACAAACCGG | 0.00192
GUGCCUUGCGCCGGGAAACCACGCAAGGGAUGGUGUCAAAUUCGGCGAAACCUAAGCGCCCGCCCGGGCGUAUGGCAACGCGGAGCCAAGCUUCGGCGCCUGCGCCGAUGAAGGUGUAGUGACUAGACGGCACCCACCUAAGGCCAACGUUAUGGUGAAGGCAUAGUCAAGGGAGGGGCGAAAGUCACACAAACCGG | 0.00172
GUGCCUUGCGCCGGGAAACCACGCAAGGGAUGGUGUCAAAUUCGGCGAAACCUAAGCGCCCGCCCGGGCGUAUGGCAACGCGGAGCCAAGCUUCGGCGCCUGCGCCGAUGAAGGUGUAGUGACUAGACGGCACCCACCUAAGGCCAACGUUAUGGUGAAGGCAUAGUCGAGGGAGUGGCGAAAGUCACACAAACCGG | 0.003
GUGCCUUGCGCCGGGAAACCACGCAAGGGAUGGUGUCAAAUUCGGCGAAACCUAAGCGCCCGCCCGGGCGUAUGGCAACGCGGAGCCAAGCUUCGGCGCCUGCGCCGAUGAAGGUGUAGUGACUAGACGGCACCCACCUAAGGCCAACGUUAUGGUGAAGGCAUAGUCGAGGGAGAGGCGAAAGUCACACAAACCGG | 0.00262
GUGCCUUGCGCCGGGAAACCACGCAAGGGAUGGUGUCAAAUUCGGCGAAACCUAAGCGCCCGCCCGGGCGUAUGGCAACGCGGAGCCAAGCUUCGGCGCCUGCGCCGAUGAAGGUGUAGUGACUAGACGGCACCCACCUAAGGCCAACGUUAUGGUGAAGGCAUAGUCGAGGGAGCGGCGAAAGUCACACAAACCGG | 0.00277
GUGCCUUGCGCCGGGAAACCACGCAAGGGAUGGUGUCAAAUUCGGCGAAACCUAAGCGCCCGCCCGGGCGUAUGGCAACGCGGAGCCAAGCUUCGGCGCCUGCGCCGAUGAAGGUGUAGUGACUAGACGGCACCCACCUAAGGCCAACGUUAUGGUGAAGGCAUAGUCGAGGGAGGGGCGAAAGUCACACAAACCGG | 0.00162
GUGCCUUGCGCCGGGAAACCACGCAAGGGAUGGUGUCAAAUUCGGCGAAACCUAAGCGCCCGCCCGGGCGUAUGGCAACGCGGAGCCAAGCUUCGGCGCCUGCGCCGAUGAAGGUGUAGUGACUAGACGGCACCCACCUAAGGCCAACGUUAUGGUGAAGGCAUAGUCUAGGGAGUGGCGAAAGUCACACAAACCGG | 0.00351
GUGCCUUGCGCCGGGAAACCACGCAAGGGAUGGUGUCAAAUUCGGCGAAACCUAAGCGCCCGCCCGGGCGUAUGGCAACGCGGAGCCAAGCUUCGGCGCCUGCGCCGAUGAAGGUGUAGUGACUAGACGGCACCCACCUAAGGCCAACGUUAUGGUGAAGGCAUAGUCUAGGGAGAGGCGAAAGUCACACAAACCGG | 0.00246
GUGCCUUGCGCCGGGAAACCACGCAAGGGAUGGUGUCAAAUUCGGCGAAACCUAAGCGCCCGCCCGGGCGUAUGGCAACGCGGAGCCAAGCUUCGGCGCCUGCGCCGAUGAAGGUGUAGUGACUAGACGGCACCCACCUAAGGCCAACGUUAUGGUGAAGGCAUAGUCUAGGGAGCGGCGAAAGUCACACAAACCGG | 0.00227
GUGCCUUGCGCCGGGAAACCACGCAAGGGAUGGUGUCAAAUUCGGCGAAACCUAAGCGCCCGCCCGGGCGUAUGGCAACGCGGAGCCAAGCUUCGGCGCCUGCGCCGAUGAAGGUGUAGUGACUAGACGGCACCCACCUAAGGCCAACGUUAUGGUGAAGGCAUAGUCUAGGGAGGGGCGAAAGUCACACAAACCGG | 0.00165
GUGCCUUGCGCCGGGAAACCACGCAAGGGAUGGUGUCAAAUUCGGCGAAACCUAAGCGCCCGCCCGGGCGUAUGGCAACGCGGAGCCAAGCUUCGGCGCCUGCGCCGAUGAAGGUGUAGUGACUAGACGGCACCCACCUAAGGCCAACGUUAUGGUGAAGGCAUAGUCCAGGGAGAGGCGAAAGUCACACAAACCGG | 0.0158
GUGCCUUGCGCCGGGAAACCACGCAAGGGAUGGUGUCAAAUUCGGCGAAACCUAAGCGCCCGCCCGGGCGUAUGGCAACGCGGAGCCAAGCUUCGGCGCCUGCGCCGAUGAAGGUGUAGUGACUAGACGGCACCCACCUAAGGCCAACGUUAUGGUGAAGGCAUAGUCCAGGGAGCGGCGAAAGUCACACAAACCGG | 0.0197
GUGCCUUGCGCCGGGAAACCACGCAAGGGAUGGUGUCAAAUUCGGCGAAACCUAAGCGCCCGCCCGGGCGUAUGGCAACGCGGAGCCAAGCUUCGGCGCCUGCGCCGAUGAAGGUGUAGUGACUAGACGGCACCCACCUAAGGCCAACGUUAUGGUGAAGGCAUAGUCCAGGGAGGGGCGAAAGUCACACAAACCGG | 0.00871
GUGCCUUGCGCCGGGAAACCACGCAAGGGAUGGUGUCAAAUUCGGCGAAACCUAAGCGCCCGCCCGGGCGUAUGGCAACGCGGAGCCAAGCUUCGGCGCCUGCGCCGAUGAAGGUGUAGUGACUAGACGGCACCCACCUAAGGCCAACGCUAUGGUGAAGGCAUAGUCAAGGGAGUGGCGAAAGUCACACAAACCGG | 0.00201
GUGCCUUGCGCCGGGAAACCACGCAAGGGAUGGUGUCAAAUUCGGCGAAACCUAAGCGCCCGCCCGGGCGUAUGGCAACGCGGAGCCAAGCUUCGGCGCCUGCGCCGAUGAAGGUGUAGUGACUAGACGGCACCCACCUAAGGCCAACGCUAUGGUGAAGGCAUAGUCAAGGGAGAGGCGAAAGUCACACAAACCGG | 0.00185
GUGCCUUGCGCCGGGAAACCACGCAAGGGAUGGUGUCAAAUUCGGCGAAACCUAAGCGCCCGCCCGGGCGUAUGGCAACGCGGAGCCAAGCUUCGGCGCCUGCGCCGAUGAAGGUGUAGUGACUAGACGGCACCCACCUAAGGCCAACGCUAUGGUGAAGGCAUAGUCAAGGGAGCGGCGAAAGUCACACAAACCGG | 0.00168
GUGCCUUGCGCCGGGAAACCACGCAAGGGAUGGUGUCAAAUUCGGCGAAACCUAAGCGCCCGCCCGGGCGUAUGGCAACGCGGAGCCAAGCUUCGGCGCCUGCGCCGAUGAAGGUGUAGUGACUAGACGGCACCCACCUAAGGCCAACGCUAUGGUGAAGGCAUAGUCAAGGGAGGGGCGAAAGUCACACAAACCGG | 0.00157
GUGCCUUGCGCCGGGAAACCACGCAAGGGAUGGUGUCAAAUUCGGCGAAACCUAAGCGCCCGCCCGGGCGUAUGGCAACGCGGAGCCAAGCUUCGGCGCCUGCGCCGAUGAAGGUGUAGUGACUAGACGGCACCCACCUAAGGCCAACGCUAUGGUGAAGGCAUAGUCGAGGGAGUGGCGAAAGUCACACAAACCGG | 0.00562
GUGCCUUGCGCCGGGAAACCACGCAAGGGAUGGUGUCAAAUUCGGCGAAACCUAAGCGCCCGCCCGGGCGUAUGGCAACGCGGAGCCAAGCUUCGGCGCCUGCGCCGAUGAAGGUGUAGUGACUAGACGGCACCCACCUAAGGCCAACGCUAUGGUGAAGGCAUAGUCGAGGGAGAGGCGAAAGUCACACAAACCGG | 0.00239
GUGCCUUGCGCCGGGAAACCACGCAAGGGAUGGUGUCAAAUUCGGCGAAACCUAAGCGCCCGCCCGGGCGUAUGGCAACGCGGAGCCAAGCUUCGGCGCCUGCGCCGAUGAAGGUGUAGUGACUAGACGGCACCCACCUAAGGCCAACGCUAUGGUGAAGGCAUAGUCGAGGGAGCGGCGAAAGUCACACAAACCGG | 0.00261
